The results in this text go back to the domain aggregation screens of Martell et al. (2025).

A short description of the series: soluble fraction after stress (log2 fold change); higher = more stays soluble; pooled small domains, quantitative proteomics. The conditions noted are these: stress: pH 4. An outline of the steps:
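After pH 4 stress, pooled custom libraries of small protein domains were quantified with high-throughput quantitative proteomics. Aggregation propensity is taken from the fold change in each domain's soluble amount following the acid stress. The scale is log2, where higher values mean more stayed soluble.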
With “HMGTISKRINPSGTTVYRAVIRIRKNGYPNFTESRTFSKKSMAAEWVKRREAEIELNPDILFG”, the “soluble fraction (log2)” value was -0.0195.
With “HMGTLSLLVQKLMAVGLEGAKASEIVERFDRERIERQINALPSRKIKSSRTGFLIRAIELDIPVE”, the “soluble fraction (log2)” value is -1.31.
For the sequence “HMGTPKMPLSLYLSMVENLRSLKRFALVNQQVKDGFVFFNDVAGIKRLQELLNYHNTGEKPSE”, the “soluble fraction (log2)” value is -0.287.
In the case of “HMGTRIQAVMEDIQSRIAARTYLPGTRLPSVRAQAQAMQVSVSTVVEAYERLAAEGVIASRPGSGFYVAGP” it was not below 0.43; in that of “HMGTRPAYAADAPNPQKRFIYHRIVDQLRNKATGAPISYRAIAAETGVSVQTVINIKNRMNQMLSEK”, not below 0.43.
In the case of “HMGTRPIQIASFSKEENAKRAVEALAKIGITAQPQKSGSATKAVWGVVANGDADLLAKIKAAGFADAYFL” it was 0.179; in that of “HMGTRTILGIDPGSRKTGFGIIRLDGSRTHYVSSGVIRIPDTALPERLKIIFASLNEIIQQFQPQEV”, 0.107.
In the case of “HMGTRYVEFVIPGTGNHEVRIVSSNGSRQNVEVAGTYPGGARLRTKVDNGVRRVSFYVDNRLVEEKQ” it was -0.0183.
Take “HMGTSFKITFYKDAFQVDDGPIRMLNDPANQKFVDEVSQGYAPKELIGQGGKAPEIDIIDKRSENAPT”: the “soluble fraction (log2)” value is -0.0971.
To “HMGTVFTDIMTDIASGKFPNVFPDSLEAQIQKNVTMAPDKLSATLQYGDKSVILPTTKGKEAAEAAVKAA” belongs -0.648.
For the sequence “HMGTYTSALDGIKGLGKKRKMLLLNTYKSIDVLKSVPLTELSQLIPREVAEALLTKLNRVDD”, the “soluble fraction (log2)” value is 0.116.
In the case of “HMGVDASVDSKLDLLSQVLDSDQVKEQLPEAVLEQLAQNLDRWRSLHEESELQDDDIAELNRLLGLFGLG” it was -1.67; in that of “HMGVEKHLRITGTSTVSWKDAIVQAVAEASKTIDYLSNVKIIEQRARIDGKKLVEYFVDLDLSFVID”, -0.38; in that of “HMGVGITAPLAGNIFKIVVQPGDVVASGDVVLVLEAMKMETEIRAASGGTVSQVLVREGDAVDAGHTLITL”, -1.49.
Consider “HMGVGVTAPLAGNIFKIVKQPGDVVASGDVVLILEAMKMETEIRAAAGGTVKQVLVREGDAVDAGHTLMTL”, for which the “soluble fraction (log2)” value was -1.59.
In the case of “HMGVHSVVPDIKNKHYGEAKAILAANGLSIEISDSIYDRSVAPGTVVESWPKAGAIVKGDRAVFVTLTAF” it was -1.17; in that of “HMGVMTGAEFVGNTVASVERNLIIDTLKHTMGNRTTAANILGISIRTLRNKLKQYQNEGFDIPE”, 0.185.
To “HMGVPELHKGEIVQAVVEKVLGEGLLRVNLKGMTVEAATSLRLNPGQQLLLRSEGIENGRQVLR” belongs 0.042; to “HMGVQKGKDNALAVQQWIAERDATGDFGEYERRGIINRSALFDELGIPRSSMGSNDQIRQMIEAADVRWF”, -0.663.
To “HMGVREIIVQFLEQFDKPKSVQEIVEYVLRYRNTTENSIRSTMYSGSQFRQFDNGYFGLSDKSYPNEYIYA” belongs -1.25; to “HMGVRLAPEVDRIPYGQMHPNLKKVKDLYEASYKAYVQALSSGNQALAKEKLEEFQSTKARYQRALSAYT”, 0.195.
With “HMGVRVEVDAVTPPGAMASGSVVFSDGESKKWSVDQFGRLAMTGGAPDYKPSDQDVMEFQQQLEQSL”, the “soluble fraction (log2)” value was -0.57.
To “HMGVSAGQVRGLIRNLIAGEDKSKPLSDLALERELEKREIRISRRTVAKYRAELGIPNSDQRRYLP” belongs 0.0779.
To “HMGVSLKEIQENLSLIDDAAQKLASGQGTVDDAVGMGNAGKDIYDNIEGYVSSPKEFINGVLSSV” belongs -0.823; to “HMGVSVNVQPAILDWAMQKAQMGNAGSSVIEMIAKWISGEKAPTFNQIEDVSKKISIPFGFFFLKEPPIE”, -1.21.
To “HMGVTGYPNPTREHITWDDARRIEVWNAYGVPVADLRFARGVLDVAGWPVGTYVARIDGGRSVRFVVI” belongs -0.663.
For the sequence “HMGVTVDEVHRNFESGMNVVHKKFGAGVVDSFDEGKIRINFDGVIKVFIADVLINSGMLESVSYTH”, the “soluble fraction (log2)” value was -0.922.
In the case of “HMGWEDLVGKTAVVKVALAPVGMVFFRGEFWSAISETGRIEPGEEVTISRIDGLKLYVTKKRIM” it was not below 0.43.
In the case of “HMGWEPTPVLVAARDISGGTVLDQDMLRVEAIPSRLVTPSIVRSDLLASVQDAKLLLPMKQGDLLNFNMLQ” it was -0.49; in that of “HMGWVMLVIMSRGASEAQINAVVEKIRAAGLTEHLSKGIERTIIGAIGEERKLEPEVFELLPGVEQALHIV”, -0.713.
In the case of “HMGYDSYDADTIPKLKIGSIVEHPKFGEGSIISKAGAEVTIAFKIKGVKKINLEYTSIKVLK” it was 0.117; in that of “HMGYGEQEQEAQKYLALHALMSQDPTLAKMYQAPNQYKLMSHVMEQNGIKNVNDYLTDPQQLP”, -0.161.
As to “HMGYKDIDKLSGVDLAIYRFIVEHDEQIPYMRVRELARGAHVSNSSVMRFIRKIGYDSFPEFKVSLRS”, the “soluble fraction (log2)” value was -0.322.
Take “HMGYPGLGSIGSKPLGDLLFQSKLFVKTKREFAEFKMANNNIVWGRRTQYLVRNYPLSVMEVFL”: the “soluble fraction (log2)” value is -0.348.
In the case of “HMHAGQIISQKIKESGISISHVAKHLKVQRATLYNLFEREVWPAHRLRTIEALLHIDLSDLYP” it was -1.52; in that of “HMHANAALTPRQRLRLAQKIVDEEWTVAAAADYFRVSWPTAAKWARRYVELGEAGMADRSSRP”, -0.641; in that of “HMHDEKHHQLANEIARKWAALRGNRDFAAADELKNLAAEAGVELQATKQAVGQGALAKLKENFDPVKLEAL”, 0.22.
In the case of “HMHDLDALTGLSGEARSKVYEEGSVFVAGEMWSAKSDAVIPAGSSIRVVRREGFILVVEKDS” it was -1.97; in that of “HMHDYTTIIGVIELRLNKISYDNVQKRYRIGRSGISLIMERYRDSGLSLDDLKQMPAEKVVNLIYPKD”, -0.108; in that of “HMHDYYDSIDAVTHDKSYESNLVFALKLGYTETQLQKALLKLGKKAREDQILEELIRIQKSSKA”, not below 0.43.
As to “HMHEGNWTLPNPMPIGTTLTLPEHSRLYISNLAGQRVFETSATSVEIPLLPKGTYLLRLETMNGHTTRKIL”, the “soluble fraction (log2)” value is 0.00873.
In the case of “HMHELKIEKVAEAPNGAMRLLLSDGSEWVLGVKSWNRLNLSLEKILDVNVLRALEKESQYHLLRTKALEL” it was 0.171; in that of “HMHFIMEYRIRAYVDELFESAPRTQRAYELKIELTQNLIDKYYALVSEGKSEQDAYNLTVMSIGDVREL”, -0.959.
In the case of “HMHGEAVVVPNVKGLPMRQAENEIYKQSLKAVAIDSSYVKGMPPGAILEQNPAGGSKVKKGRTVYLTINMD” it was 0.0278.
Consider “HMHGERVVTAGQTVRVVFTSNGLQVSSEGKALAAGAVGDDIQVRAASGKVIRGTVTGPGVVQV”, for which the “soluble fraction (log2)” value was not below 0.43.
In the case of “HMHGLNQNKPIPIADIVNSVNNYLTSLGKKTITDNSVLSNLKKAAKYLNTAYNLVLRPDSLNMTVTLL” it was 0.22; in that of “HMHIMINPDQLSPEQIQSIRTWAEEGLDLNAIQKRLHEDLNIKLTFMDTRFLLQDLDIRIRQPEPEPEAEQ”, -0.67; in that of “HMHINLEGLKKIDFRKKIGFLFGSEASGLSNKEVSYANYTLQIPTNINFKSLNLSHSLIIIAQFISSLLNS”, 0.126.
In the case of “HMHKIRRQTKITKSLLDQIEGIGSSRKKALLNHFGSAKAVGEAGETDLGTVKGISNSLAKKIYDFFHAT” it was 0.281.
As for “HMHLDIGQLVQRILADIQVGKLADGQRKLPAEPVLMERYQVTRYTLRQALKQLSNMGYTYQMHGIGTFVRQ”, the “soluble fraction (log2)” value is -0.211.
